Data on 15 variants can be found in the RNAGym collection of RNA variant scans (doi:10.1093/molbev/msab373).

The labels stand for the following.
B1: Azoarcus group I ribozyme (parent)
chain: GUGCCUUGCGCCGGGAAACCACGCAAGGGAUGGUGUCAAAUUCGGCGAAACCUAAGCGCCCGCCCGGGCGUAUGGCAACGCCGAGCCAAGCUUCGGCGCCUGCGCCGAUGAAGGUGUAGAGACUAGACGGCACCCACCUAAGGCAAACGCUAUGGUGAAGGCAUAGUCCAGGGAGUGGCGAAAGUCACACAAACCGG

Variants of B1 are the subject of the series. In words: reverse-splicing fitness (ratio to wild type); higher = more active; in vitro selection; Mg2+ level not given. The essentials: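 An in vitro group I ribozyme library with randomized positions was T7-transcribed and gel-purified. In triplicate, 10 pmol RNA in EPPS pH 7.5 was reacted with 50 pmoles of a 30-nt RNA substrate for 1 h at 37 °C across several added MgCl2 levels (1–48 mM), then stopped with EDTA. Products were reverse transcribed from a substrate-complementary primer, PCR-amplified and sequenced (HiSeq 4000). Fitness is a variant's read proportion after selection over that before, normalised to wild type.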
With GUGCCUUGCGCCGGGAAACCACGCAAGGGAUGGUGUCAAAUUCGGCGAAACCUAAGCGCCCGCCCGGGCGUAUGGCAACGCCGAGCCAAGCUUCGGCGCCUGCGCCGAUGCAGGUGUAGGGACUAGACGGCACCCACCUAAGGCUAACGAUAUGGUGAAGGCAUAGUCGAGGGAGUGGCGAAAGUCACACAAACCGG, the reverse-splicing fitness amounted to 0.0221.

Regarding GUGCCUUGCGCCGGGAAACCACGCAAGGGAUGGUGUCAAAUUCGGCGAAACCUAAGCGCCCGCCCGGGCGUAUGGCAACGCCGAGCCAAGCUUCGGCGCCUGCGCCGAUGCAGGUGUAGGGACUAGACGGCACCCACCUAAGGCUAACGAUAUGGUGAAGGCAUAGUCUAGGGAGUGGCGAAAGUCACACAAACCGG, the reverse-splicing fitness turned out to be 0.018. For GUGCCUUGCGCCGGGAAACCACGCAAGGGAUGGUGUCAAAUUCGGCGAAACCUAAGCGCCCGCCCGGGCGUAUGGCAACGCCGAGCCAAGCUUCGGCGCCUGCGCCGAUGCAGGUGUAGGGACUAGACGGCACCCACCUAAGGCUAACGGUAUGGUGAAGGCAUAGUCUAGGGAGAGGCGAAAGUCACACAAACCGG the value was 0.0111; for GUGCCUUGCGCCGGGAAACCACGCAAGGGAUGGUGUCAAAUUCGGCGAAACCUAAGCGCCCGCCCGGGCGUAUGGCAACGCCGAGCCAAGCUUCGGCGCCUGCGCCGAUGCAGGUGUAGGGACUAGACGGCACCCACCUAAGGCUAACGGUAUGGUGAAGGCAUAGUCUAGGGAGCGGCGAAAGUCACACAAACCGG, 0.0151; for GUGCCUUGCGCCGGGAAACCACGCAAGGGAUGGUGUCAAAUUCGGCGAAACCUAAGCGCCCGCCCGGGCGUAUGGCAACGCCGAGCCAAGCUUCGGCGCCUGCGCCGAUGCAGGUGUAGGGACUAGACGGCACCCACCUAAGGCUAACGGUAUGGUGAAGGCAUAGUCUAGGGAGGGGCGAAAGUCACACAAACCGG, 0.00442. Then GUGCCUUGCGCCGGGAAACCACGCAAGGGAUGGUGUCAAAUUCGGCGAAACCUAAGCGCCCGCCCGGGCGUAUGGCAACGCCGAGCCAAGCUUCGGCGCCUGCGCCGAUGCAGGUGUAGGGACUAGACGGCACCCACCUAAGGCUAACGGUAUGGUGAAGGCAUAGUCCAGGGAGUGGCGAAAGUCACACAAACCGG, with 0.0193; and GUGCCUUGCGCCGGGAAACCACGCAAGGGAUGGUGUCAAAUUCGGCGAAACCUAAGCGCCCGCCCGGGCGUAUGGCAACGCCGAGCCAAGCUUCGGCGCCUGCGCCGAUGCAGGUGUAGGGACUAGACGGCACCCACCUAAGGCUAACGUUAUGGUGAAGGCAUAGUCCAGGGAGUGGCGAAAGUCACACAAACCGG, with 0.113. For GUGCCUUGCGCCGGGAAACCACGCAAGGGAUGGUGUCAAAUUCGGCGAAACCUAAGCGCCCGCCCGGGCGUAUGGCAACGCCGAGCCAAGCUUCGGCGCCUGCGCCGAUGCAGGUGUAGGGACUAGACGGCACCCACCUAAGGCUAACGUUAUGGUGAAGGCAUAGUCAAGGGAGUGGCGAAAGUCACACAAACCGG the value was 0.0731.

For GUGCCUUGCGCCGGGAAACCACGCAAGGGAUGGUGUCAAAUUCGGCGAAACCUAAGCGCCCGCCCGGGCGUAUGGCAACGCCGAGCCAAGCUUCGGCGCCUGCGCCGAUGCAGGUGUAGGGACUAGACGGCACCCACCUAAGGCUAACGUUAUGGUGAAGGCAUAGUCAAGGGAGAGGCGAAAGUCACACAAACCGG, the reverse-splicing fitness came to 0.0161.

Consider GUGCCUUGCGCCGGGAAACCACGCAAGGGAUGGUGUCAAAUUCGGCGAAACCUAAGCGCCCGCCCGGGCGUAUGGCAACGCCGAGCCAAGCUUCGGCGCCUGCGCCGAUGCAGGUGUAGGGACUAGACGGCACCCACCUAAGGCUAACGAUAUGGUGAAGGCAUAGUCGAGGGAGGGGCGAAAGUCACACAAACCGG, for which the reverse-splicing fitness came out at 0.00467.

For the variant GUGCCUUGCGCCGGGAAACCACGCAAGGGAUGGUGUCAAAUUCGGCGAAACCUAAGCGCCCGCCCGGGCGUAUGGCAACGCCGAGCCAAGCUUCGGCGCCUGCGCCGAUGCAGGUGUAGGGACUAGACGGCACCCACCUAAGGCUAACGAUAUGGUGAAGGCAUAGUCGAGGGAGAGGCGAAAGUCACACAAACCGG, the reverse-splicing fitness stood at 0.0123.

With GUGCCUUGCGCCGGGAAACCACGCAAGGGAUGGUGUCAAAUUCGGCGAAACCUAAGCGCCCGCCCGGGCGUAUGGCAACGCCGAGCCAAGCUUCGGCGCCUGCGCCGAUGCAGGUGUAGGGACUAGACGGCACCCACCUAAGGCUAACGAUAUGGUGAAGGCAUAGUCGAGGGAGCGGCGAAAGUCACACAAACCGG, the reverse-splicing fitness is 0.0176.

With GUGCCUUGCGCCGGGAAACCACGCAAGGGAUGGUGUCAAAUUCGGCGAAACCUAAGCGCCCGCCCGGGCGUAUGGCAACGCCGAGCCAAGCUUCGGCGCCUGCGCCGAUGCAGGUGUAGGGACUAGACGGCACCCACCUAAGGCUAACGAUAUGGUGAAGGCAUAGUCCAGGGAGGGGCGAAAGUCACACAAACCGG, the reverse-splicing fitness worked out at 0.0043.

With GUGCCUUGCGCCGGGAAACCACGCAAGGGAUGGUGUCAAAUUCGGCGAAACCUAAGCGCCCGCCCGGGCGUAUGGCAACGCCGAGCCAAGCUUCGGCGCCUGCGCCGAUGCAGGUGUAGGGACUAGACGGCACCCACCUAAGGCUAACGAUAUGGUGAAGGCAUAGUCCAGGGAGAGGCGAAAGUCACACAAACCGG, the reverse-splicing fitness came to 0.0126.

As to GUGCCUUGCGCCGGGAAACCACGCAAGGGAUGGUGUCAAAUUCGGCGAAACCUAAGCGCCCGCCCGGGCGUAUGGCAACGCCGAGCCAAGCUUCGGCGCCUGCGCCGAUGCAGGUGUAGGGACUAGACGGCACCCACCUAAGGCUAACGAUAUGGUGAAGGCAUAGUCCAGGGAGCGGCGAAAGUCACACAAACCGG, the reverse-splicing fitness was 0.0176.
